Test results from article PMC10441475, “Structure of METTL3-METTL14 with an m6A nucleotide reveals insights into m6A conversion and sensing”.

Assays:
METTL3 WT;METTL14 R298P = METTL3 WT;METTL14 R298P (Homo sapiens;Homo sapiens, UniProt Q86U44;Q9HCE5 1-580;1-456, |R298P); assay: SPR; two-state model; FP: 10 mM HEPES pH 7.5, 50 mM KCl, 5 nM RNA; SPR: 10 mM HEPES pH 7.5, 150 mM KCl, 0.05% P20, 25 C; 2-Ap: 50 mM Tris pH 8.0, 10 mM MgCl2, 0.5 uM RNA, read at 37; conditions: protein: recombinant;recombinant, tags: His-tag removed by TEV;, copies: 1;1
METTL3 R471H;METTL14 WT = METTL3 R471H;METTL14 WT (Homo sapiens;Homo sapiens, UniProt Q86U44;Q9HCE5 1-580;1-456, R471H|); assay: as above; conditions: protein: recombinant;recombinant, tags: His-tag removed by TEV;, copies: 1;1
METTL3 WT;METTL14 WT [1] = target: T1, METTL3 WT;METTL14 WT (Homo sapiens;Homo sapiens, UniProt Q86U44;Q9HCE5 1-580;1-456, |); assay: SPR; 1:1 model; FP: 10 mM HEPES pH 7.5, 50 mM KCl, 5 nM RNA; SPR: 10 mM HEPES pH 7.5, 150 mM KCl, 0.05% P20, 25 C; 2-Ap: 50 mM Tris pH 8.0, 10 mM MgCl2, 0.5 uM RNA, read at 37; conditions: protein: recombinant;recombinant, tags: His-tag removed by TEV;, copies: 1;1
METTL3 WT;METTL14 WT [2] = target: T1, METTL3 WT;METTL14 WT; assay: fluorescence polarization; range given for A-RNA and m6A-RNA together; m6A-RNA said to bind more tightly; FP: 10 mM HEPES pH 7.5, 50 mM KCl, 5 nM RNA; SPR: 10 mM HEPES pH 7.5, 150 mM KCl, 0.05% P20, 25 C; 2-Ap: 50 mM Tris pH 8.0, 10 mM MgCl2, 0.5 uM RNA, read at 37; conditions: protein: recombinant;recombinant; tags: His-tag removed by TEV;; copies: 1;1; label: 5' fluorescein; predicted bulged stem-loop
METTL3 WT;METTL14 WT [3] = target: T1, METTL3 WT;METTL14 WT; assay: fluorescence polarization; range given for A-RNA and m6A-RNA together; FP: 10 mM HEPES pH 7.5, 50 mM KCl, 5 nM RNA; SPR: 10 mM HEPES pH 7.5, 150 mM KCl, 0.05% P20, 25 C; 2-Ap: 50 mM Tris pH 8.0, 10 mM MgCl2, 0.5 uM RNA, read at 37; conditions: protein: recombinant;recombinant; tags: His-tag removed by TEV;; copies: 1;1; label: 5' fluorescein; predicted bulged stem-loop

T1 sequence (Q86U44 whole entry, chain 1 of 2): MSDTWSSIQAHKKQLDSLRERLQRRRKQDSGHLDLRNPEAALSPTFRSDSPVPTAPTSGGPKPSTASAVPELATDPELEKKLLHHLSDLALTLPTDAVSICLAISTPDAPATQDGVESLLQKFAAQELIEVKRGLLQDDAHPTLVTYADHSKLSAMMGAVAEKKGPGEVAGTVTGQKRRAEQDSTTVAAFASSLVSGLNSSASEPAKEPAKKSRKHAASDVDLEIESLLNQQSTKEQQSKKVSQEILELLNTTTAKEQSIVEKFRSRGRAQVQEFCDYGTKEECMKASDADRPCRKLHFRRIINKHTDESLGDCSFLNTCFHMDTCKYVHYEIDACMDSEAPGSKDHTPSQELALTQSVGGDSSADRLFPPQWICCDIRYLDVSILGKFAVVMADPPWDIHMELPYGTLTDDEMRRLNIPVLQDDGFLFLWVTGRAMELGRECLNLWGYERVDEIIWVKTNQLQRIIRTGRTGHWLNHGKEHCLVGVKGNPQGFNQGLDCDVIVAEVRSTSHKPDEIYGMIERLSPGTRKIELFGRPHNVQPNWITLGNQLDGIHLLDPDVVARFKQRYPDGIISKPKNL
T1 sequence (Q9HCE5 whole entry, chain 2 of 2): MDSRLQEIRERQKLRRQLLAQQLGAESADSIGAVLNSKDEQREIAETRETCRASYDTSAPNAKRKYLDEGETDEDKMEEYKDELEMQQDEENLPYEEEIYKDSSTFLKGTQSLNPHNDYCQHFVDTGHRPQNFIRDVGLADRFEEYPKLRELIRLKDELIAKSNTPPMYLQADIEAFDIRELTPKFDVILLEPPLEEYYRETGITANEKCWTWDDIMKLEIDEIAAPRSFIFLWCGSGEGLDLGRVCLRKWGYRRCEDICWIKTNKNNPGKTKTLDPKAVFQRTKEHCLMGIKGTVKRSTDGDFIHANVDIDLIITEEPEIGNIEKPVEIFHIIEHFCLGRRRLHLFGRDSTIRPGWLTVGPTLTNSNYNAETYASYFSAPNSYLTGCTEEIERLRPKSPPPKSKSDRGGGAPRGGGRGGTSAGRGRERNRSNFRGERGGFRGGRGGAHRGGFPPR
Chain of METTL3 WT;METTL14 R298P (Q86U44 whole entry, chain 1 of 2): as the sequence (Q86U44 whole entry, chain 1 of 2) above
Chain of METTL3 WT;METTL14 R298P (Q9HCE5 whole entry R298P, chain 2 of 2): as the sequence (Q9HCE5 whole entry, chain 2 of 2) above, with R298P counted along it
Chain of METTL3 R471H;METTL14 WT (Q86U44 whole entry R471H, chain 1 of 2): as the sequence (Q86U44 whole entry, chain 1 of 2) above, with R471H counted along it
Chain of METTL3 R471H;METTL14 WT (Q9HCE5 whole entry, chain 2 of 2): as the sequence (Q9HCE5 whole entry, chain 2 of 2) above

B1: r6T-m6A (biotinyl) (ssRNA)
RNA: CUUCGGACUCUGCU
modifications: m6A at position 7
B1 gave a Kd (METTL3 WT;METTL14 R298P; linear single strand) of 22900 nM, a Kd (METTL3 R471H;METTL14 WT; linear single strand) of 171 nM and a Kd (METTL3 WT;METTL14 WT [1]; linear single strand) of 3120 nM.

B2: rNEAT2 (biotinyl) (structured_RNA)
RNA: GCCUAGUAGCAGAGAGGACUGCUCCUUGGU
With B2 the Kd (METTL3 WT;METTL14 R298P; bulged stem-loop) was 356 nM, the Kd (METTL3 R471H;METTL14 WT; bulged stem-loop) was 58.8 nM and the Kd (METTL3 WT;METTL14 WT [1]; bulged stem-loop) was 256 nM.

B3: rNEAT2-m6A (biotinyl) (structured_RNA)
RNA: GCCUAGUAGCAGAGAGGACUGCUCCUUGGU
modifications: m6A at position 18
Work on B3 yielded a Kd (METTL3 WT;METTL14 R298P; bulged stem-loop) of 538 nM, a Kd (METTL3 R471H;METTL14 WT; bulged stem-loop) of 62.8 nM and a Kd (METTL3 WT;METTL14 WT [1]; bulged stem-loop) of 337 nM.

B4: Fl-NEAT2*-m6A (m6A-RNA) (structured_RNA)
RNA: GCCUAGUAGCAGAGAGGACUGCUCCUUGGU
modifications: m6A at position 18
B4 showed a Kd (METTL3 WT;METTL14 WT [2]) of about 13.4 nM.

B5: r6T (biotinyl) (ssRNA)
RNA: CUUCGGACUCUGCU
For B5, the Kd (METTL3 WT;METTL14 R298P; linear single strand) was 2160 nM, the Kd (METTL3 R471H;METTL14 WT; linear single strand) was 108 nM and the Kd (METTL3 WT;METTL14 WT [1]; linear single strand) was 1360 nM.

B6: Fl-NEAT2* (A-RNA) (structured_RNA)
RNA: GCCUAGUAGCAGAGAGGACUGCUCCUUGGU
B6 gave a Kd (METTL3 WT;METTL14 WT [3]) of about 13.4 nM.
